Values quoted from earlier work, collected in paper doi:10.1101/2024.03.27.586990.

Target: Asp27 (UniProt position 27, WNLPADLAWFK)
Conditions: unbound state (no inhibitor), as described by this article

Dihydrofolate reductase (DHFR) (Escherichia coli)
pKa: 6.5
